The source of these data is patent US20090074722A1, “Products and methods for treating PTP lar diseases” (MAX-PLANCK-GESELLSCHAFT ZUR, priority 1999, published 2009).

For one assay, the target named is T1, β-catenin (Homo sapiens, UniProt P35222).
T1 construct: expressed in transfected cells; host or cells: human embryonic kidney 293 cells, transient, pervanadate-treated, used as lysate; the GST-PTP LARi partner was made in E. coli
T1 sequence (P35222 2-781): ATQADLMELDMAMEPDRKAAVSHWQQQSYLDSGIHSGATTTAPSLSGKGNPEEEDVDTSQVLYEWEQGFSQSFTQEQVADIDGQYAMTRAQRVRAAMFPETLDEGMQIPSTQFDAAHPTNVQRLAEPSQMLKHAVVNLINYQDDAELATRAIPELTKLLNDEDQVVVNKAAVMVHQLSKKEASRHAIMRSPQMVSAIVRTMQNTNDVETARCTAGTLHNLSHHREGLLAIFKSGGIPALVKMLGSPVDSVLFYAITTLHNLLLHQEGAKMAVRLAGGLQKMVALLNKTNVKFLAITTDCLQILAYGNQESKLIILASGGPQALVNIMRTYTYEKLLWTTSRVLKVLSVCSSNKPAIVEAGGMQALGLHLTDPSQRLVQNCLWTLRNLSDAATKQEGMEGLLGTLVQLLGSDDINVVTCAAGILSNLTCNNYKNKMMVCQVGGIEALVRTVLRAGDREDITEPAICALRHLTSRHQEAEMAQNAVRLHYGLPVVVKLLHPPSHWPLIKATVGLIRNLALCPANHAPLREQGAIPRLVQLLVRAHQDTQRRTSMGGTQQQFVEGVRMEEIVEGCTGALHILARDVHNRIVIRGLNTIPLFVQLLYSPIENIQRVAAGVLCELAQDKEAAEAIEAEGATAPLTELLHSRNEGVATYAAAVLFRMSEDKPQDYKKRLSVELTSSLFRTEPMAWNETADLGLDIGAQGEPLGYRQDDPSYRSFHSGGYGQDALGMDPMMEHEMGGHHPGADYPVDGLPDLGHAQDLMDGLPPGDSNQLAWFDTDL
Description: In vitro binding assay (GST pull-down), β-catenin. Particulars: lysates of pervanadate treated 293 cells overexpressing β-catenin. As for the experimental part:
(§1) After 24 h of serum starvation, the cells were stimulated with pervanadate for 10 minutes before lysis. Equal amounts of lysats were incubated with the GST-PTP LAR cytoplasmic fusion protein (GST-PTP LARi) or a threefold molar excess of GST. Lysates of control vector transfected 293 cells were incubated with the GST-PTP LAR cytoplasmic fusion protein (GST-PTP LARi). Complexes were immobilized on glutathione-sepharose, and precipitates were separated by SDS-PAGE. Bound proteins were analyzed by Western blotting with an anti-β-catenin antibody (left) or an antibody against plakoglobin (right). Arrows indicate the proteins of interest. Molecular mass standards in kilodaltons are shown on the left. […]
(§2) To investigate the potential association of PTP LAR with the cadherin/catenin-complex in intact cells, subconfluent human MCF7 cells were stimulated with EGF, were lysed, and were immunoprecipitated with antibodies either against PTP LAR or the cadherin/catenin-complex. Western blotting analysis with specific antibodies to β-catenin and E-cadherin (FIG. 5A) or plakoglobin and E-cadherin (FIG. 5B) detected these proteins in anti-human PTP LAR immunoprecipitates with the monoclonal antibody 11.1A against the extracellular domain of human PTP LAR and vice versa. […]

The target in another assay is T2, plakoglobin (Homo sapiens, UniProt P14923).
T2 construct: expressed in transfected cells; host or cells: human embryonic kidney 293 cells, transient, pervanadate-treated, used as lysate; the GST-PTP LARi partner was made in E. coli
T2 sequence (P14923 1-745): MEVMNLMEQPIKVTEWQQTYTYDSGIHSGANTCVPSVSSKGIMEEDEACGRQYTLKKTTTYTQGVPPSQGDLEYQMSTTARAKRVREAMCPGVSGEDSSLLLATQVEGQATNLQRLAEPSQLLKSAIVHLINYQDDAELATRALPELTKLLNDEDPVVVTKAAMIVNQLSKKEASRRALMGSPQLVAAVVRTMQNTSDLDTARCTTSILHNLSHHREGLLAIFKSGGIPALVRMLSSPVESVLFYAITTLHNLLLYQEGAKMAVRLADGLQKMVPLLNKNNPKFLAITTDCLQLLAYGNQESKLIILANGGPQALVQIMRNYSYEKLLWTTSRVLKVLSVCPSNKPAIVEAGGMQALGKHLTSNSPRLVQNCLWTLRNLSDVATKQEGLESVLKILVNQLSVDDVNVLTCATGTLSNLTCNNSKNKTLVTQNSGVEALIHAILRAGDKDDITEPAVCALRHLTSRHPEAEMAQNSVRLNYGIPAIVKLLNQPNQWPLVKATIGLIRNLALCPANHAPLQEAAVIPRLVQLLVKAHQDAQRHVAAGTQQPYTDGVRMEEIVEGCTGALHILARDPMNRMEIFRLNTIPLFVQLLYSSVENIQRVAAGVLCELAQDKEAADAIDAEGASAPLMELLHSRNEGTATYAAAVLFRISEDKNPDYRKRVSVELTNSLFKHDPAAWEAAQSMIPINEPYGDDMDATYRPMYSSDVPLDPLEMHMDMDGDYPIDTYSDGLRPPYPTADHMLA
Description: In vitro binding assay (GST pull-down), plakoglobin. Particulars: lysates of pervanadate treated 293 cells overexpressing plakoglobin. As for the experimental part:
as §1, §2

B1: GST-PTP LAR cytoplasmic: GST fusion protein comprising the entire cytoplasmic domain (amino acids 1259-1881) of human PTP LAR (protein)
chain: PEMLWVTGPVLAVILIILIVIAILLFKRKRTHSPSSKDEQSIGLKDSLLAHSSDPVEMRRLNYQTPGMRDHPPIPITDLADNIERLKANDGLKFSQEYESIDPGQQFTWENSNLEVNKPKNRYANVIAYDHSRVILTSIDGVPGSDYINANYIDGYRKQNAYIATQGPLPETMGDFWRMVWEQRTATVVMMTRLEEKSRVKCDQYWPARGTETCGLIQVTLLDTVELATYTVRTFALHKSGSSEKRELRQFQFMAWPDHGVPEYPTPILAFLRRVKACNPLDAGPMVVHCSAGVGRTGCFIVIDAMLERMKHEKTVDIYGHVTCMRSQRNYMVQTEDQYVFIHEALLEAATCGHTEVPARNLYAHIQKLGQVPPGESVTAMELEFKLLASSKAHTSRFISANLPCNKFKNRLVNIMPYELTRVCLQPIRGVEGSDYINASFLDGYRQQKAYIATQGPLAESTEDFWRMLWEHNSTIIVMLTKLREMGREKCHQYWPAERSARYQYFVVDPMAEYNMPQYILREFKVTDARDGQSRTIRQFQFTDWPEQGVPKTGEGFIDFIGQVHKTKEQFGQDGPITVHCSAGVGRTGVFITLSIVLERMRYEGVVDMFQTVKTLRTQRPAM
With B1, in the assay with β-catenin, the “association with β-catenin” value is recorded as “associate specifically”. Besides, the association with plakoglobin entry in the assay with plakoglobin was “associate specifically”.
